Like-named read-outs stand apart in the source and are kept apart here.

One experiment concerns ERK. As to the kind of experiment: Western blot of ERK activation (anti-diphosphorylated ERK) in PC12 cells. The format is cell-based. The following applies: PC12 cells treated with 100 ng/ml EGF for 0 to 120 min. On the procedure: (§1) In order to confirm the simulation, PC12 cells treated with EGF (100 ng/ml) were used to measure the time data tracking the activation levels of MEK and ERK, respectively. […] Western blot analysis was performed as follows. PC12 cells were treated with 100 ng/ml EGF for 0 to 120 min. Dissolved protein samples were reacted by using anti-phosphorylated MEK antibodies and anti-diphosphorylated ERK antibodies. Then, the resultant was reacted with anti-HRP (horse radish peroxidase)-conjugated secondary antibodies and confirmed the presence of a band via ECL chemoluminscence.
(§2) PC12 cells treated with EGF or nerve growth factor (NGF) were examined to evaluate the efficacies of PD09859 (10 μM) and U0126 (0.01-10 μM) in respect of MEK and ERK activation. Western blot analysis was performed as follows. PC12 cells treated with PD09859 and U0126 were treated with 100 ng/ml of EGF or NGF for 5 min. Then, the resulting protein sample was separated by performing SDS/PAGE, and then blotted by using anti-phosphorylated MEK and anti-diphosphoryated ERK antibodies. Again, the resultant was blotted by using anti-HRP (horseradish peroxidase) conjugated secondary antibodies and identified in bands by ECL chemo-luminescence.

A further experiment relates to MEK. Kind of experiment: Western blot of MEK activation (anti-phosphorylated MEK) in PC12 cells. Type of experiment: cell-based. Here is the method:
as §1, §2
Background: Immunoblotting shows a protein as a band on a membrane.

The next experiment deals with EGFR. The following applies: cited from earlier work.

B1: EGF: peptide growth factor composed of 55 amino acids in a long chain (protein, UniProt P01133 23-1207, looked up)
Pro-epidermal growth factor: PQHWSCPEGTLAGNGNSTCVGPAPFLIFSHGNSIFRIDTEGTNYEQLVVDAGVSVIMDFHYNEKRIYWVDLERQLLQRVFLNGSRQERVCNIEKNVSGMAINWINEEVIWSNQQEGIITVTDMKGNNSHILLSALKYPANVAVDPVERFIFWSSEVAGSLYRADLDGVGVKALLETSEKITAVSLDVLDKRLFWIQYNREGSNSLICSCDYDGGSVHISKHPTQHNLFAMSLFGDRIFYSTWKMKTIWIANKHTGKDMVRINLHSSFVPLGELKVVHPLAQPKAEDDTWEPEQKLCKLRKGNCSSTVCGQDLQSHLCMCAEGYALSRDRKYCEDVNECAFWNHGCTLGCKNTPGSYYCTCPVGFVLLPDGKRCHQLVSCPRNVSECSHDCVLTSEGPLCFCPEGSVLERDGKTCSGCSSPDNGGCSQLCVPLSPVSWECDCFPGYDLQLDEKSCAASGPQPFLLFANSQDIRHMHFDGTDYGTLLSQQMGMVYALDHDPVENKIYFAHTALKWIERANMDGSQRERLIEEGVDVPEGLAVDWIGRRFYWTDRGKSLIGRSDLNGKRSKIITKENISQPRGIAVHPMAKRLFWTDTGINPRIESSSLQGLGRLVIASSDLIWPSGITIDFLTDKLYWCDAKQSVIEMANLDGSKRRRLTQNDVGHPFAVAVFEDYVWFSDWAMPSVMRVNKRTGKDRVRLQGSMLKPSSLVVVHPLAKPGADPCLYQNGGCEHICKKRLGTAWCSCREGFMKASDGKTCLALDGHQLLAGGEVDLKNQVTPLDILSKTRVSEDNITESQHMLVAEIMVSDQDDCAPVGCSMYARCISEGEDATCQCLKGFAGDGKLCSDIDECEMGVPVCPPASSKCINTEGGYVCRCSEGYQGDGIHCLDIDECQLGEHSCGENASCTNTEGGYTCMCAGRLSEPGLICPDSTPPPHLREDDHHYSVRNSDSECPLSHDGYCLHDGVCMYIEALDKYACNCVVGYIGERCQYRDLKWWELRHAGHGQQQKVIVVAVCVVVLVMLLLLSLWGAHYYRTQKLLSKNPKNPYEESSRDVRSRRPADTEDGMSSCPQPWFVVIKEHQDLKNGGQPVAGEDGQAADGSMQPTSWRQEPQLCGMGTEQGCWIPVSSDKGSCPQVMERSFHMPSYGTQTLEGGVEKPHSLLSANPLWQQRALDPPHQMELTQ
modifications: Pro-epidermal growth factor
notes: peptide growth factor composed of 55 amino acids in a long chain
For the molecule B1, the “ERK activation, time course” value with ERK was “temporary activation”. The “MEK activation, time course” value with MEK (PC12 cells treated with 100 ng/ml EGF for 0 to 120 min) is “temporary activation”. Further, the MEK activation result in the experiment on MEK (PC12 cells treated with EGF 100 ng/ml for 5 min) is “became still higher”. In addition, the dissociation constant (Kd) was < 1 nM on EGFR (EGFR high affinity binding, read-out: dissociation constant (Kd), interaction with a high affinity) and 6 to 12 nM at EGFR (EGFR low affinity binding, read-out: dissociation constant (Kd), interaction with a low affinity).

What is called Kd is the constant that tells how readily two partners part at equilibrium.

The values are drawn from US20060200330A1, “Methods and systems for modeling and simulating biochemical pathways” (KOREA INSTITUTE OF SCIENCE AND TECHNOLOGY, priority 2005, published 2006).
